Experimental findings from article PMC4914107 (Nucleic Acids Research, 2016) are described below.

Experiment [1] has as its target T1, RAD51 (purified) (UniProt Q06609 1-339).
T1 sequence (looked up): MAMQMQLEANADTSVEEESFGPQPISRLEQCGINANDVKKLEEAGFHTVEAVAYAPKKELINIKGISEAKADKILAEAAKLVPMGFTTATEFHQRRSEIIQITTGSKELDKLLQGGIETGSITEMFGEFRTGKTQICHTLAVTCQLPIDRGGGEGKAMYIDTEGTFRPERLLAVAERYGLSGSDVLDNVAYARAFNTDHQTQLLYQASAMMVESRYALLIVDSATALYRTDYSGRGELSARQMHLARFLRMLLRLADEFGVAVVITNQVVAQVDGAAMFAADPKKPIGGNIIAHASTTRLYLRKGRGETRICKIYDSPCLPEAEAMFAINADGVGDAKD
As to the kind of experiment: pull-down.

Experiment [2] has as its target T1, RAD51 (purified). As to the kind of experiment: pull-down. The source holds these as a separate data set.

Read-outs that look alike come from different tables or passages of the source.

B1: 2XMBP-BRC1–4-DBD (domain or fragment, human)
chain: WAGLLGPISNHSFGGSFRTASNKEIKLSEHNIKKSKMFFKDIEEQYPTSLACVEIVNTLALDNQKKLSKPQSINTVSAHLQSSVVVSDCKNSHITPQMLFSKQDFNSNHNLTPSQKAEITELSTILEESGSQFEFTQFRKPSYILQKSTFEVPENQMTILKTTSEECRDADLHVIMNAPSIGQVDSSKQFEGTVEIKRKFAGLLKNDCNKSASGYLTDENEVGFRGFYSAHGTKLNVSTEALQKAVKLFSDIENISEETSAEVHPISLSSSKCHDSVVSMFKIENHNDKTVSEKNNKCQLILQNNIEMTTGTFVEEITENYKRNTENEDNKYTAASRNSHNLEFDGSDSSKNDTVCIHKDETDLLFTDQHNICLKLSGQFMKEGNTQIKEDLSDLTFLEVAKAQEACHGNTSNKEQLTATKTEQNIKDFETSDTFFQTASGKNISVAKESFNKIVNFFDQKPEELHNFSLNSELHSDIRKNKMDILSYEETDIVKHKILKESVPVGTGNQLVTFQGQPERDEKIKEPTLLGFHTASGKKVKIAKESLDKVKNLFDEKEQGTSEITSFSHQWAKTLKYREACKDLELACETIEITAAPGGGSPYLSQFQQDKQQLVLGTKVSLVENIHVLGKEQASPKNVKMEIGKTETFSDVPVKTNIEVCSTYSKDSENYFETEAVEIAKAFMEDDELTDSKLPSHATHSLFTCPENEEMVLSNSRIGKRRGEPLILVGEPSIKRNLLNEFDRIIENQEKSLKASKSTPDGTIKDRRLFMHHVSLEPITCVPFRTTKERQEIQNPNFTAPGQEFLSKSHLYEHLTLEKSSSNLAVSGHPFYQVSATRNEKMRHLITTGRPTKVFVPPFKTKSHFHRVEQCVRNINLEENRQKQNIDGHGSDDSKNKINDNEIHQFNKNNSNQAVAVTFTKCEEEPLDLITSLQNARDIQDMRIKKKQRQRVFPQPGSLYLAKTSTLPRISLKAAVGGQVPSACSHKQLYTYGVSKHCIKINSKNAESFQFHTEDYFGKESLWTGKGIQLADGGWLIPSNDGKAGKEEFYRALCDTPGVDPKLISRIWVYNHYRWIIWKLAAMECAFPKEFANRCLSPERVLLQLKYRYDTEIDRSRRSAIKKIMERDDTAAKTLVLCVSDIISLSANISETSSNKTSSADTQKVAIIELTDGWYAVKAQLDPPLLAVLKNGRLTVGQKIILHGAELVGSPDACTPLEAPESLMLKISANSTRPARWYTKLGFFPDPRPFPLPLSSLFSDGGNVGCVDVIIQRAYPIQWMEKTSSGLYIFRNEREEEKEAAKYVEAQQKRLEALFTKIQEEFEEHEENTTKPYLPSRALTRQQVRALQDGAELYEAVKNAADPAYLEGYFSEEQLRALNNHRQMLNDKKQAQIQLEIRKAMESAEQKEQGLSRDVTTVWKLRIVSYSKKEKDSVILSIWRPSSDLYSLLTEGKRYRIYHLATSKSKSKSERANIQLAATKKTQYQQLPVSDEILFQIYQPREPLHFSKFLDPDFQPSCSEVDLIGFVVSVVKKTGLAPFVYLSDECYNLLAIKFWIDLNEDIIKPHMLIAASNLQWRPESKSGLLTLFAGDFSVFSASPKEGHFQETFNKMKNTVENIDILCNEAENKLMHILHANDPKWSTPTKDCTSGPYTAQIIPGTGNKLLMSSPNCEIYYQSPLSLCMAKRKSVSTPVSAQMTSKSCKGEKEIDDQKNCKKRRALDFLSRLPLPPPVSPICTFVSPAAQKAFQPPRSCGTKYETPIKKKELNSPQMTPFKKFNEISLLESNSIADEELALINTQALLSGSTGEKQFISVSESTRTAPTSSEDYLRLKRRCTTSLIKEQESSQASTEECEKNKQDTITTKKYI
Consider B1, for which the binding result in the experiment with RAD51 (purified) [1] is on record as “binds”.

B2: 2XMBP-BRC4-DBD (domain or fragment, human)
chain: PVGTGNQLVTFQGQPERDEKIKEPTLLGFHTASGKKVKIAKESLDKVKNLFDEKEQGTSEITSFSHQWAKTLKYREACKDLELACETIEITAAPGGGSPYLSQFQQDKQQLVLGTKVSLVENIHVLGKEQASPKNVKMEIGKTETFSDVPVKTNIEVCSTYSKDSENYFETEAVEIAKAFMEDDELTDSKLPSHATHSLFTCPENEEMVLSNSRIGKRRGEPLILVGEPSIKRNLLNEFDRIIENQEKSLKASKSTPDGTIKDRRLFMHHVSLEPITCVPFRTTKERQEIQNPNFTAPGQEFLSKSHLYEHLTLEKSSSNLAVSGHPFYQVSATRNEKMRHLITTGRPTKVFVPPFKTKSHFHRVEQCVRNINLEENRQKQNIDGHGSDDSKNKINDNEIHQFNKNNSNQAVAVTFTKCEEEPLDLITSLQNARDIQDMRIKKKQRQRVFPQPGSLYLAKTSTLPRISLKAAVGGQVPSACSHKQLYTYGVSKHCIKINSKNAESFQFHTEDYFGKESLWTGKGIQLADGGWLIPSNDGKAGKEEFYRALCDTPGVDPKLISRIWVYNHYRWIIWKLAAMECAFPKEFANRCLSPERVLLQLKYRYDTEIDRSRRSAIKKIMERDDTAAKTLVLCVSDIISLSANISETSSNKTSSADTQKVAIIELTDGWYAVKAQLDPPLLAVLKNGRLTVGQKIILHGAELVGSPDACTPLEAPESLMLKISANSTRPARWYTKLGFFPDPRPFPLPLSSLFSDGGNVGCVDVIIQRAYPIQWMEKTSSGLYIFRNEREEEKEAAKYVEAQQKRLEALFTKIQEEFEEHEENTTKPYLPSRALTRQQVRALQDGAELYEAVKNAADPAYLEGYFSEEQLRALNNHRQMLNDKKQAQIQLEIRKAMESAEQKEQGLSRDVTTVWKLRIVSYSKKEKDSVILSIWRPSSDLYSLLTEGKRYRIYHLATSKSKSKSERANIQLAATKKTQYQQLPVSDEILFQIYQPREPLHFSKFLDPDFQPSCSEVDLIGFVVSVVKKTGLAPFVYLSDECYNLLAIKFWIDLNEDIIKPHMLIAASNLQWRPESKSGLLTLFAGDFSVFSASPKEGHFQETFNKMKNTVENIDILCNEAENKLMHILHANDPKWSTPTKDCTSGPYTAQIIPGTGNKLLMSSPNCEIYYQSPLSLCMAKRKSVSTPVSAQMTSKSCKGEKEIDDQKNCKKRRALDFLSRLPLPPPVSPICTFVSPAAQKAFQPPRSCGTKYETPIKKKELNSPQMTPFKKFNEISLLESNSIADEELALINTQALLSGSTGEKQFISVSESTRTAPTSSEDYLRLKRRCTTSLIKEQESSQASTEECEKNKQDTITTKKYI
With B2, the binding result in the experiment with RAD51 (purified) [2] was “binds”.
